Assays:
[1] = target: linked dimers of the gp120 V1/V2 domain; experiment: SPR
epitope-scaffold 1VH8_C [2] = experiment: ELISA, antibody dilution series on the scaffold after large-scale expression
epitope-scaffold 2ZJR_A [3] = experiment: ELISA, antibody dilution series on the scaffold
1X3E = experiment: ELISA, antibody dilution series on the scaffold
1JO8-ZM109 V1V2 scaffold [4] = experiment: ELISA, antibody dilution series on the scaffold
[5] = target: Env of HIV-1 strain BG 1168 (pseudovirus) (HIV-1); experiment: cell-based or functional assay
[6] = target: Env of HIV-1 strain 6631 (pseudovirus) (HIV-1); experiment: cell-based or functional assay
[7] = target: Env of HIV-1 strain ZM135 (pseudovirus) (HIV-1); experiment: cell-based or functional assay
[8] = target: Env of HIV-1 strain QH0515 (pseudovirus) (HIV-1); experiment: cell-based or functional assay
[9] = target: Env of HIV-1 strain 398 (pseudovirus) (HIV-1); experiment: cell-based or functional assay
[10] = target: Env of HIV-1 strain RHPA (pseudovirus) (HIV-1); experiment: cell-based or functional assay
[11] = target: Env of HIV-1 strain CNE56 (pseudovirus) (HIV-1); experiment: cell-based or functional assay
[12] = target: Env of HIV-1 strain A03349M1 (pseudovirus) (HIV-1); experiment: cell-based or functional assay
[13] = target: Env of HIV-1 strain JRFL (pseudovirus) (HIV-1); experiment: cell-based or functional assay
[14] = target: Env of HIV-1 strain CNE4 (pseudovirus) (HIV-1); experiment: cell-based or functional assay
[15] = target: Env of HIV-1 strain X2088 (pseudovirus) (HIV-1); experiment: cell-based or functional assay
[16] = target: Env of HIV-1 strain CNE30 (pseudovirus) (HIV-1); experiment: cell-based or functional assay
[17] = target: Env of HIV-1 strain 7165.18 (pseudovirus) (HIV-1); experiment: cell-based or functional assay
[18] = target: Env of HIV-1 strain 6405 (pseudovirus) (HIV-1); experiment: cell-based or functional assay
[19] = target: Env of HIV-1 strain T251-18 (pseudovirus) (HIV-1); experiment: cell-based or functional assay
[20] = target: Env of HIV-1 strain 6322 (pseudovirus) (HIV-1); experiment: cell-based or functional assay
[21] = target: Env of HIV-1 strain 6471 (pseudovirus) (HIV-1); experiment: cell-based or functional assay
[22] = target: Env of HIV-1 strain 3873 (pseudovirus) (HIV-1); experiment: cell-based or functional assay
[23] = target: Env of HIV-1 strain QH209 (pseudovirus) (HIV-1); experiment: cell-based or functional assay
[24] = target: Env of HIV-1 strain 0439 (pseudovirus) (HIV-1); experiment: cell-based or functional assay
[25] = target: gp120 of HIV-1 strain 16055, full length (HIV-1); experiment: ELISA, PG9 dilution series
epitope-scaffold 2ZJR_A [26] = experiment: ELISA, PG9 dilution series
epitope-scaffold 1VH8_C [27] = experiment: ELISA, PG9 dilution series
epitope-scaffold 2ZJR_B = experiment: ELISA, PG9 dilution series
1JO8-ZM109 V1V2 scaffold [28] = experiment: ELISA, PG9 dilution series
[29] = target: linked dimers of the gp120 V1/V2 domain; experiment: gel filtration shift

monoclonal antibody PG9
0.01 µg/mL: EC50 (read off the curve) (epitope-scaffold 2ZJR_A [26]) | EC50 (read off the curve) (epitope-scaffold 2ZJR_B)
< 1 µM: Kd [1]
> 50 µg/mL: neutralization IC50, Env-pseudovirus, TZM-bl cells [5] | neutralization IC50, Env-pseudovirus, TZM-bl cells [6] | neutralization IC50, Env-pseudovirus, TZM-bl cells [7] | neutralization IC50, Env-pseudovirus, TZM-bl cells [8] | neutralization IC50, Env-pseudovirus, TZM-bl cells [9] | neutralization IC50, Env-pseudovirus, TZM-bl cells [10] | neutralization IC50, Env-pseudovirus, TZM-bl cells [11] | neutralization IC50, Env-pseudovirus, TZM-bl cells [12] | neutralization IC50, Env-pseudovirus, TZM-bl cells [13] | neutralization IC50, Env-pseudovirus, TZM-bl cells [14] | neutralization IC50, Env-pseudovirus, TZM-bl cells [15] | neutralization IC50, Env-pseudovirus, TZM-bl cells [16] | neutralization IC50, Env-pseudovirus, TZM-bl cells [17] | neutralization IC50, Env-pseudovirus, TZM-bl cells [18] | neutralization IC50, Env-pseudovirus, TZM-bl cells [19] | neutralization IC50, Env-pseudovirus, TZM-bl cells [20] | neutralization IC50, Env-pseudovirus, TZM-bl cells [21] | neutralization IC50, Env-pseudovirus, TZM-bl cells [22] | neutralization IC50, Env-pseudovirus, TZM-bl cells [23] | neutralization IC50, Env-pseudovirus, TZM-bl cells [24]
0.03 µg/mL: EC50 (read off the curve) (epitope-scaffold 1VH8_C [27]) | EC50 (read off the curve) (1JO8-ZM109 V1V2 scaffold [28])
0.3 µg/mL: EC50 (read off the curve) (epitope-scaffold 2ZJR_A [3])
0.5 µg/mL: EC50 (read off the curve) (1JO8-ZM109 V1V2 scaffold [4])
0.8 µg/mL: EC50 (read off the curve) (epitope-scaffold 1VH8_C [2])
100%: percent active for PG9 binding [29]
1 µg/mL: EC50 (read off the curve) (1X3E)
0.004 µg/mL: EC50 (read off the curve) [25]
